Laboratory results: article PMC10058238, “Mechanism of sphingolipid homeostasis revealed by structural analysis of Arabidopsis SPT-ORM1 complex” (Science Advances, 2023)

B5: Arabidopsis LCB2a (natural protein)
chain: MITIPYLTAVSTYFSYGLLFAFGQLRDFFRRFIDWWFTSNLQGYAPICLGHEDFYIRRLYHRIQDCFERPISSAPDAWFDVVERYSNDNNKTLKRTTKTSRCLNLGSYNYLGFGSFDEYCTPRVIESLKKFSASTCSSRVDAGTTSVHAELEECVTRFVGKPAAVVFGMGYATNSAIIPVLIGKGGLIISDSLNHSSIVNGARGSGATIRVFQHNTPSHLERVLREQIAEGQPRTHRPWKKIIVVVEGIYSMEGEICHLPEVVAICKKYKAYVYLDEAHSIGAIGKTGKGICELLGVDTADVDVMMGTFTKSFGSCGGYIAGSKELIQYLKHQCPAHLYATSIPTPSAQQIISAIKVILGEDGSNRGAQKLARIRENSNFFRAELQKMGFEVLGDNDSPVMPIMLYNPAKIPAFSRECLRQKVAVVVVGFPATPLLLARARICISASHSREDLIRALKVISKVGDLSGIKYFPAEPKKIEQSKNDIKLD
modifications: pyridoxal 5'-phosphate covalently linked to the ε-amino group of Lys311 (internal aldimine)
notes: LCB2a, subunit of serine palmitoyltransferase, Arabidopsis; codon-optimized cDNA in pCAG without a tag; residues 1 to 36 and 41 to 475 are in the atomic model; The sentence on the PLP link prints 'LCB2b'; the construct is LCB2a; also called AtLCB2a; source: HEK293F, transiently cotransfected with the other subunits, purified as a complex (anti-Flag resin, Superose 6) in GDN

Columns and labels:
[1] = molecular target: T1, Flag-tagged Arabidopsis SPTssa (Arabidopsis, UniProt A8MSB8 1-56); experiment: cryo-EM structure; single-particle cryo-EM of the coexpressed, purified complexes (WT, ORM1-N17A, LCB2a-ΔN5) at ~18 mg/ml in 25 mM Hepes pH 7.5, 150 mM NaCl, 0.01% GDN; the LCB2a-ΔN5 sample preincubated with 0.5 mM PLP, 10 mM L-serine and 1 mM S-CoA; conditions: both partners purified
T1 construct: SPTssa, small subunit of serine palmitoyltransferase, Arabidopsis; codon-optimized cDNA in pCAG; residues 1 to 48 are in the atomic model; The only tagged subunit; bait of every purification; also called Flag-SPTssa; Flag-AtSPTssa; source: HEK293F, transiently cotransfected with the other subunits, purified as a complex (anti-Flag resin, Superose 6) in GDN; not shown: Flag, N-terminal, kept
T1 sequence: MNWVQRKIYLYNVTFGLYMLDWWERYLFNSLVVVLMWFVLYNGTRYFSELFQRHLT

[2] = molecular target: B5; experiment: as above; conditions: both partners purified
[3] = molecular target: T2, Arabidopsis LCB2a-ΔN5 (Arabidopsis, UniProt Q9LSZ9 1-489, LCB2a-ΔN5 (deletion of residues 2 to 5)); experiment: as above; conditions: both partners purified
T2 construct: LCB2a, Arabidopsis, with residues 2 to 5 deleted; also called LCB2a-ΔN5 variant
T2 sequence: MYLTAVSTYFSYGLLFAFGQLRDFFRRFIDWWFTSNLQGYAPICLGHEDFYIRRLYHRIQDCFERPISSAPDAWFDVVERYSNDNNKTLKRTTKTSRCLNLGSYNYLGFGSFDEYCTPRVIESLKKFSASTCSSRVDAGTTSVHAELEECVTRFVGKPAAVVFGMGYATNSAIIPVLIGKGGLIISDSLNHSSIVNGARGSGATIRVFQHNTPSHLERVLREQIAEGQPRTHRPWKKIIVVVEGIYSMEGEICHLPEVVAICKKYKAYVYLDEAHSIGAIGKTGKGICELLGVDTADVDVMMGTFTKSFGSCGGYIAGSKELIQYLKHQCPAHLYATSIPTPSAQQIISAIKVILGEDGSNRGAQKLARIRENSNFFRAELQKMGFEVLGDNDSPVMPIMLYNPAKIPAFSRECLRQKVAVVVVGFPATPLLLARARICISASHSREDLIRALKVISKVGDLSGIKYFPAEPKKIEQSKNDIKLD

[4] = molecular target: T3, Arabidopsis SPT complex (LCB1, LCB2a, SPTssa) (Arabidopsis, UniProt Q94IB8 1-482; Q9LSZ9 1-489; A8MSB8 1-56); experiment: cell-based or functional assay
T3 sequence 1: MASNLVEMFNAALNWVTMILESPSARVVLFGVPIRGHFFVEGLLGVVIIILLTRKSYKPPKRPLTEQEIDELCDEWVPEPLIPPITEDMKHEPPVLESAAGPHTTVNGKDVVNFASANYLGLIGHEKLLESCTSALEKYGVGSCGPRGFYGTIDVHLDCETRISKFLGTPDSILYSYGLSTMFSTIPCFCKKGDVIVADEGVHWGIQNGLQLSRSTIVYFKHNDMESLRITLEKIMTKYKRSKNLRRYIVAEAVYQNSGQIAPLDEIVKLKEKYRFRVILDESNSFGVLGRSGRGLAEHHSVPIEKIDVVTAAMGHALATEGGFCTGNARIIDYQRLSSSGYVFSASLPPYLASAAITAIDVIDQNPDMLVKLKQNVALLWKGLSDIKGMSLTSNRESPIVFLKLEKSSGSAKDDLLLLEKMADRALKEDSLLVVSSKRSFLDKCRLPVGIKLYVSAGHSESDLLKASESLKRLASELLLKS
T3 sequence 2: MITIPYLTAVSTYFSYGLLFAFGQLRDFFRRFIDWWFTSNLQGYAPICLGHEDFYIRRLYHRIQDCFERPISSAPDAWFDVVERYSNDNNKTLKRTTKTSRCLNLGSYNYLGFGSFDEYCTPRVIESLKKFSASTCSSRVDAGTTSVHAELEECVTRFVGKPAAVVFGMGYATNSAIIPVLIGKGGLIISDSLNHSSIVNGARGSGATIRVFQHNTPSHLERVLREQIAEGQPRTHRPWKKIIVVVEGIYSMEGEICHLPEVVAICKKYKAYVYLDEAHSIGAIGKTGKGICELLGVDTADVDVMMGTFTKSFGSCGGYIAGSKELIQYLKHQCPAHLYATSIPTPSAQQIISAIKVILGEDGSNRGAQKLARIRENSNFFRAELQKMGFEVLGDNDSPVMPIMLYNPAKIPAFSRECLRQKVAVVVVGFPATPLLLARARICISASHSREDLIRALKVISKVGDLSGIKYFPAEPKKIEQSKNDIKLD
T3 sequence 3: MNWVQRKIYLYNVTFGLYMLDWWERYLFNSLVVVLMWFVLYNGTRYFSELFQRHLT

[5] = molecular target: the molecule itself; experiment: cryo-EM structure; single-particle cryo-EM of the coexpressed, purified complexes (WT, ORM1-N17A, LCB2a-ΔN5) at ~18 mg/ml in 25 mM Hepes pH 7.5, 150 mM NaCl, 0.01% GDN; the LCB2a-ΔN5 sample preincubated with 0.5 mM PLP, 10 mM L-serine and 1 mM S-CoA

B1: Arabidopsis LCB1 (natural protein, UniProt Q94IB8 1-482, looked up)
chain: MASNLVEMFNAALNWVTMILESPSARVVLFGVPIRGHFFVEGLLGVVIIILLTRKSYKPPKRPLTEQEIDELCDEWVPEPLIPPITEDMKHEPPVLESAAGPHTTVNGKDVVNFASANYLGLIGHEKLLESCTSALEKYGVGSCGPRGFYGTIDVHLDCETRISKFLGTPDSILYSYGLSTMFSTIPCFCKKGDVIVADEGVHWGIQNGLQLSRSTIVYFKHNDMESLRITLEKIMTKYKRSKNLRRYIVAEAVYQNSGQIAPLDEIVKLKEKYRFRVILDESNSFGVLGRSGRGLAEHHSVPIEKIDVVTAAMGHALATEGGFCTGNARIIDYQRLSSSGYVFSASLPPYLASAAITAIDVIDQNPDMLVKLKQNVALLWKGLSDIKGMSLTSNRESPIVFLKLEKSSGSAKDDLLLLEKMADRALKEDSLLVVSSKRSFLDKCRLPVGIKLYVSAGHSESDLLKASESLKRLASELLLKS
notes: LCB1, subunit of serine palmitoyltransferase, Arabidopsis; codon-optimized cDNA in pCAG without a tag; residues 36 to 480 are in the atomic model; also called AtLCB1; source: HEK293F, transiently cotransfected with the other subunits, purified as a complex (anti-Flag resin, Superose 6) in GDN
stoichiometry N [1]: 1

B2: Arabidopsis ORM1 (natural protein)
chain: MANLYVKAVPPPDMNRNTEWFMYPGVWTTYMLILFFGWLVVLSVSGCSPGMAWTVVNLAHFVVTYHSFHWMKGTPFADDQGIYNGLTWWEQMDNGQQLTRNRKFLTLVPVVLYLIASHTTDYRHPWLFLNTLAVMVLVVAKFPNMHKVRIFGINGDK
notes: ORM1, Arabidopsis; codon-optimized cDNA in pCAG without a tag; residues 1 to 156 are in the atomic model; also called AtORM1; WT ORM1
stoichiometry N [1]: 1
binding result [2]: binds
binding result [3]: binds
specific SPT activity of the purified SPT-ORM1 complex at saturating conditions, relative to the SPT complex [4]: ~50%

B3: Arabidopsis SPT-ORM1 complex (LCB1, LCB2a, SPTssa, ORM1) (complex)
chain 1: MASNLVEMFNAALNWVTMILESPSARVVLFGVPIRGHFFVEGLLGVVIIILLTRKSYKPPKRPLTEQEIDELCDEWVPEPLIPPITEDMKHEPPVLESAAGPHTTVNGKDVVNFASANYLGLIGHEKLLESCTSALEKYGVGSCGPRGFYGTIDVHLDCETRISKFLGTPDSILYSYGLSTMFSTIPCFCKKGDVIVADEGVHWGIQNGLQLSRSTIVYFKHNDMESLRITLEKIMTKYKRSKNLRRYIVAEAVYQNSGQIAPLDEIVKLKEKYRFRVILDESNSFGVLGRSGRGLAEHHSVPIEKIDVVTAAMGHALATEGGFCTGNARIIDYQRLSSSGYVFSASLPPYLASAAITAIDVIDQNPDMLVKLKQNVALLWKGLSDIKGMSLTSNRESPIVFLKLEKSSGSAKDDLLLLEKMADRALKEDSLLVVSSKRSFLDKCRLPVGIKLYVSAGHSESDLLKASESLKRLASELLLKS
chain 2: MITIPYLTAVSTYFSYGLLFAFGQLRDFFRRFIDWWFTSNLQGYAPICLGHEDFYIRRLYHRIQDCFERPISSAPDAWFDVVERYSNDNNKTLKRTTKTSRCLNLGSYNYLGFGSFDEYCTPRVIESLKKFSASTCSSRVDAGTTSVHAELEECVTRFVGKPAAVVFGMGYATNSAIIPVLIGKGGLIISDSLNHSSIVNGARGSGATIRVFQHNTPSHLERVLREQIAEGQPRTHRPWKKIIVVVEGIYSMEGEICHLPEVVAICKKYKAYVYLDEAHSIGAIGKTGKGICELLGVDTADVDVMMGTFTKSFGSCGGYIAGSKELIQYLKHQCPAHLYATSIPTPSAQQIISAIKVILGEDGSNRGAQKLARIRENSNFFRAELQKMGFEVLGDNDSPVMPIMLYNPAKIPAFSRECLRQKVAVVVVGFPATPLLLARARICISASHSREDLIRALKVISKVGDLSGIKYFPAEPKKIEQSKNDIKLD
chain 3: MNWVQRKIYLYNVTFGLYMLDWWERYLFNSLVVVLMWFVLYNGTRYFSELFQRHLT
chain 4: MANLYVKAVPPPDMNRNTEWFMYPGVWTTYMLILFFGWLVVLSVSGCSPGMAWTVVNLAHFVVTYHSFHWMKGTPFADDQGIYNGLTWWEQMDNGQQLTRNRKFLTLVPVVLYLIASHTTDYRHPWLFLNTLAVMVLVVAKFPNMHKVRIFGINGDK
modifications: pyridoxal 5'-phosphate covalently linked to the ε-amino group of Lys311 (internal aldimine)
notes: LCB1, Arabidopsis; as m1; LCB2a, Arabidopsis; as m2; SPTssa, Arabidopsis; as m3; ORM1, Arabidopsis; as m4; One protomer (1:1:1:1) of the dimer seen by cryo-EM; an endogenous ceramide copurifies between ORM1 and LCB2a; also called AtSPT-ORM1; WT SPT-ORM1 complex; source: HEK293F, transiently cotransfected (LCB1:LCB2a:ORM1:SPTssa = 3:3:3:1), purified (anti-Flag resin, Superose 6) in GDN; not shown: …
stoichiometry N [5]: 2

B4: Arabidopsis ORM1-N17A (natural protein)
chain: MANLYVKAVPPPDMNRATEWFMYPGVWTTYMLILFFGWLVVLSVSGCSPGMAWTVVNLAHFVVTYHSFHWMKGTPFADDQGIYNGLTWWEQMDNGQQLTRNRKFLTLVPVVLYLIASHTTDYRHPWLFLNTLAVMVLVVAKFPNMHKVRIFGINGDK
notes: ORM1, Arabidopsis, with N17A; residues 1 to 11 almost invisible in the map; also called ORM1-N17A variant
binding result [2]: binds

B5
stoichiometry N [1]: 1
